Test system: FMC63
Assay: CD19 variant binding to anti-CD19 antibody FMC63 (score)
Conditions: Table 1A, CD19 single mutants (positions of SEQ ID NO:2)

Chain of FMC63 (as listed by the source): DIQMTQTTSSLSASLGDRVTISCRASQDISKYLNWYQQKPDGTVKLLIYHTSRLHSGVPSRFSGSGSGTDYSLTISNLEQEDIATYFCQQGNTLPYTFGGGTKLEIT
Chain of FMC63 (as listed by the source): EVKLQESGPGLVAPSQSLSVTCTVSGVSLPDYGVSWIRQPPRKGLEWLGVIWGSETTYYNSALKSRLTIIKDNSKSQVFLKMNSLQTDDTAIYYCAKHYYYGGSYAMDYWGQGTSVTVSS

Molecule | FMC63 Binding Score
W264S: CD19 variant (protein) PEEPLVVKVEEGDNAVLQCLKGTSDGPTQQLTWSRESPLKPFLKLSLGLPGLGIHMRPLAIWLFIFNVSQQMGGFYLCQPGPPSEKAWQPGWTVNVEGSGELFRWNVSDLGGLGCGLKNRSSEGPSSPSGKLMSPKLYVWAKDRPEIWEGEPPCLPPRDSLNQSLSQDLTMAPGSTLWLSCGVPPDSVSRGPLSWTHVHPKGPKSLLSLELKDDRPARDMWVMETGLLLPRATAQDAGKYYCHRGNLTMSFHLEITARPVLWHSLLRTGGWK | 7.6 ± .5
W262R: CD19 variant (protein) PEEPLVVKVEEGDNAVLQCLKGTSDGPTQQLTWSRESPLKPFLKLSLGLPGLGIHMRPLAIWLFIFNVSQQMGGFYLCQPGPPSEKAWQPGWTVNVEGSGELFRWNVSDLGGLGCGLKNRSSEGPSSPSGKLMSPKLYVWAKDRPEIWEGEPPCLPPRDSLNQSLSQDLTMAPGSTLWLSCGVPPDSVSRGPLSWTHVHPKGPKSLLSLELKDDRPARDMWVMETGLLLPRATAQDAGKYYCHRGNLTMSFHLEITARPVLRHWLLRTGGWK | 7.4 ± .3
W264P: CD19 variant (protein) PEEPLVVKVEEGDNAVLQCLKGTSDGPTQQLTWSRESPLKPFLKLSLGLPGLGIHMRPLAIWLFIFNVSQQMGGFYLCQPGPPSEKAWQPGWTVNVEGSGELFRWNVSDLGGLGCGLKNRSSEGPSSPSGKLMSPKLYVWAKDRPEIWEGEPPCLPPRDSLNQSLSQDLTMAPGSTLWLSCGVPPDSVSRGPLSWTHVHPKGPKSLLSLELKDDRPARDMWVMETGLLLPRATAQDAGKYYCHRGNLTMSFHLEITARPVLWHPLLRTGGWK | 8.6 ± 1.5
L228V: CD19 variant (protein) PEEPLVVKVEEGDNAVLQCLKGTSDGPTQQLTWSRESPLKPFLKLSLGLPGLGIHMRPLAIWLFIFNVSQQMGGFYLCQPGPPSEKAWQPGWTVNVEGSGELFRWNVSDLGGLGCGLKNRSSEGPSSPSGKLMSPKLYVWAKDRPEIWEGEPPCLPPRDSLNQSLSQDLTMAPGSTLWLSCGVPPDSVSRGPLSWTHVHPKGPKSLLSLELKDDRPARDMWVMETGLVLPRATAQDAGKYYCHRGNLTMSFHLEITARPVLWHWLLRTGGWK | 7.4 ± .4
W264K: CD19 variant (protein) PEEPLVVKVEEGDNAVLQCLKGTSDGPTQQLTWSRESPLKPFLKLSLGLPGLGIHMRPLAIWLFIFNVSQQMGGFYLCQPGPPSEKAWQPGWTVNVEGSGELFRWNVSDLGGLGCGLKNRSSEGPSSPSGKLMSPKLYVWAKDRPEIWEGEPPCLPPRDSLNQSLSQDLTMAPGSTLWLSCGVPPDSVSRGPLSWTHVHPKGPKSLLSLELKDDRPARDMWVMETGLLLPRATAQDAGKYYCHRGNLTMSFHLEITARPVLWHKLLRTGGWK | 8. ± 1.
W264G: CD19 variant (protein) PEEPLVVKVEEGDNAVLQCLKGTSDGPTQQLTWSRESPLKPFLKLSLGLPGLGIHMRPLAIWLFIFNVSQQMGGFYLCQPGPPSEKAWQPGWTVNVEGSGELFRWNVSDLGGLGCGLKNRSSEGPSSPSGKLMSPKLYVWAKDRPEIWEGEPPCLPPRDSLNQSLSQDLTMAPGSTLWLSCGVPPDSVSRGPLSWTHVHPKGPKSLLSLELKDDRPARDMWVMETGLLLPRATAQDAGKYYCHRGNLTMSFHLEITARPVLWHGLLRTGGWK | 7.2 ± .3
V260K: CD19 variant (protein) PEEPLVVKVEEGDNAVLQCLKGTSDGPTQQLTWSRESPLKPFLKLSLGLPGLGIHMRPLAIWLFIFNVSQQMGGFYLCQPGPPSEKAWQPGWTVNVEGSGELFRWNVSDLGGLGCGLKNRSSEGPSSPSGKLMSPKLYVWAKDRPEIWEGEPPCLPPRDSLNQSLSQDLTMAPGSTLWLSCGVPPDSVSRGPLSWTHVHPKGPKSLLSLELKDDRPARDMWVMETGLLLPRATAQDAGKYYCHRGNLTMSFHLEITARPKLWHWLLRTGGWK | 7.5 ± .7
W262P: CD19 variant (protein) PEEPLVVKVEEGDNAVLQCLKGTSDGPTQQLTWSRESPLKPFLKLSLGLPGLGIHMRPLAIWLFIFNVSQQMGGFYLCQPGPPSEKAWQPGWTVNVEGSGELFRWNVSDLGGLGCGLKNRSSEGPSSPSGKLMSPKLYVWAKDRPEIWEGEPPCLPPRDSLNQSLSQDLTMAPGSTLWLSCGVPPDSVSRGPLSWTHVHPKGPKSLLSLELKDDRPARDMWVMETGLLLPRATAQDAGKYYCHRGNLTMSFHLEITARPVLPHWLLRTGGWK | 7.4 ± .7
G226T: CD19 variant (protein) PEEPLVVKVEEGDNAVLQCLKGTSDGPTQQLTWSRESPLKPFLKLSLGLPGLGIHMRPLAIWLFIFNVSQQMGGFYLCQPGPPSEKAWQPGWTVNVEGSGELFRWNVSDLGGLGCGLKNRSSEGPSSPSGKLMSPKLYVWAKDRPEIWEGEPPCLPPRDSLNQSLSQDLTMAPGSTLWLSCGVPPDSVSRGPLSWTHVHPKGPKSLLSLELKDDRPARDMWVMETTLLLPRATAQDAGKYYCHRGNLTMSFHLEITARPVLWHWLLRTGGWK | 7.3 ± .6
W262S: CD19 variant (protein) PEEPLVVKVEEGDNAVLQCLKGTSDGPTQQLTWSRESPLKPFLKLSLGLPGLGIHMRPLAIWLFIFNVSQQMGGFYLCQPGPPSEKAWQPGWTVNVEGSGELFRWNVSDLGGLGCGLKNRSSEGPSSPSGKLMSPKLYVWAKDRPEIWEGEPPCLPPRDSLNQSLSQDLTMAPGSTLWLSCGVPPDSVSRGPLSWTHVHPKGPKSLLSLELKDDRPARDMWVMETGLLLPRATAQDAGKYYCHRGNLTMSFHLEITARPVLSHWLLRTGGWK | 7. ± .3
W264Q: CD19 variant (protein) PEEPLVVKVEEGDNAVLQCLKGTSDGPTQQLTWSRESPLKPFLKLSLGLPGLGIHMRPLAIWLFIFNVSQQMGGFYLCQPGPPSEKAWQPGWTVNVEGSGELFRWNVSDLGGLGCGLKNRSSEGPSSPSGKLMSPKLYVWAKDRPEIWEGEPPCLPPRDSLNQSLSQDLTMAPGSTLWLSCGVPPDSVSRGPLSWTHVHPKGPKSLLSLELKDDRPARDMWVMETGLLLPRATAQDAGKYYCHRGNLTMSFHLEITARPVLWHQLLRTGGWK | 7.4 ± .8
W262E: CD19 variant (protein) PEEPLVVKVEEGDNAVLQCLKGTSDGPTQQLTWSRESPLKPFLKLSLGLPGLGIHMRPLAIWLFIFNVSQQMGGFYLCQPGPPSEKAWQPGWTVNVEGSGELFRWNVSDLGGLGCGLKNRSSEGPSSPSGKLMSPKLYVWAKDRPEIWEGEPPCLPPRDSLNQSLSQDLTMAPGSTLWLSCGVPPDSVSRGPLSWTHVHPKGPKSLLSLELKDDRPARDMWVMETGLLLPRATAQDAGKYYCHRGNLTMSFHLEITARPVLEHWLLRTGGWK | 6.9 ± .3
W264R: CD19 variant (protein) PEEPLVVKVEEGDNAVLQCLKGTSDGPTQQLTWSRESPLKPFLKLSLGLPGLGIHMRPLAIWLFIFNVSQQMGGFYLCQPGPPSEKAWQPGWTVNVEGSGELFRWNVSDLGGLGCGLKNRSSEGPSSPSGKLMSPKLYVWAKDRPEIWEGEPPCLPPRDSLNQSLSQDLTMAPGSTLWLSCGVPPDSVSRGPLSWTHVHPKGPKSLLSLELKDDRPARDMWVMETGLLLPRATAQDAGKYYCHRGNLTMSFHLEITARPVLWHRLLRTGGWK | 6.9 ± .3
V260R: CD19 variant (protein) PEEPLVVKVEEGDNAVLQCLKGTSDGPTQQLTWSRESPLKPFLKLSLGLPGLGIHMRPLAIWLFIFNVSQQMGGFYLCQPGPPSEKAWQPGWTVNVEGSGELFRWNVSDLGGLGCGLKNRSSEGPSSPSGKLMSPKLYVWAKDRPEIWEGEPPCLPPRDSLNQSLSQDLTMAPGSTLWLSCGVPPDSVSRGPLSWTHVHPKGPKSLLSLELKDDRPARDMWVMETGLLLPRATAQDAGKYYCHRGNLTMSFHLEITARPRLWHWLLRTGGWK | 6.7 ± .3
W262A: CD19 variant (protein) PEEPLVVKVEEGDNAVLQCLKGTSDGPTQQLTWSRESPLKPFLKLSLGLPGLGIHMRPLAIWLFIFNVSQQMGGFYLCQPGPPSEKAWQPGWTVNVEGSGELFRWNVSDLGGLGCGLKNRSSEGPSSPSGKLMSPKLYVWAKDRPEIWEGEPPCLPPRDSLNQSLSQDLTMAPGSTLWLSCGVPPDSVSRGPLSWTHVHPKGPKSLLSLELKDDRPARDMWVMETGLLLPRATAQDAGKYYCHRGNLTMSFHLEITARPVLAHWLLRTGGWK | 6.9 ± .5
W264T: CD19 variant (protein) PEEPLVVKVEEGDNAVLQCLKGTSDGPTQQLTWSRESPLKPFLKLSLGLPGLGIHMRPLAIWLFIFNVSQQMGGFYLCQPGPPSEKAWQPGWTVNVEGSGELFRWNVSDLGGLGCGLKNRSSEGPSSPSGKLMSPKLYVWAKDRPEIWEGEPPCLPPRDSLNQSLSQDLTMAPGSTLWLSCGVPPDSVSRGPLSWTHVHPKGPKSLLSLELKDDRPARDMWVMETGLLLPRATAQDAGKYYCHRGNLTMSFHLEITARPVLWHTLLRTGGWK | 7.2 ± .8
M223T: CD19 variant (protein) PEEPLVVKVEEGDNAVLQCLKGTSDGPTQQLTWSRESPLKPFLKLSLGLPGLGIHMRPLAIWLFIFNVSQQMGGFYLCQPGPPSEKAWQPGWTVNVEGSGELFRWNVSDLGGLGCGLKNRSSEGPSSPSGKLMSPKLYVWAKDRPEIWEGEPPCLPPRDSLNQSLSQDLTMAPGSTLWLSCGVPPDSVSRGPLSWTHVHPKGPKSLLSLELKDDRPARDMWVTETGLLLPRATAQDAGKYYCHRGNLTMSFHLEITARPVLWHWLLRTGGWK | 6.7 ± .4
H243T: CD19 variant (protein) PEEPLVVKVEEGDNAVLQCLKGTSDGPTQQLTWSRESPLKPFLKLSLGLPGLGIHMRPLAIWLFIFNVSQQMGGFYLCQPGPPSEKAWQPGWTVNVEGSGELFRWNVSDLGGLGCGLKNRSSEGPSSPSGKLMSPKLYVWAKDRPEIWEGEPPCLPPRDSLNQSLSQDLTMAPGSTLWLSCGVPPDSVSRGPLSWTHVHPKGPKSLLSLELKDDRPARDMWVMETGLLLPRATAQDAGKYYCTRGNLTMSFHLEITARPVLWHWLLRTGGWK | 7.1 ± .9
